Values quoted from earlier work, collected in article PMC7228847.

Biological target: SEMA6A ECD (Mus musculus) (UniProt O35464)
Sequence (O35464 19-649): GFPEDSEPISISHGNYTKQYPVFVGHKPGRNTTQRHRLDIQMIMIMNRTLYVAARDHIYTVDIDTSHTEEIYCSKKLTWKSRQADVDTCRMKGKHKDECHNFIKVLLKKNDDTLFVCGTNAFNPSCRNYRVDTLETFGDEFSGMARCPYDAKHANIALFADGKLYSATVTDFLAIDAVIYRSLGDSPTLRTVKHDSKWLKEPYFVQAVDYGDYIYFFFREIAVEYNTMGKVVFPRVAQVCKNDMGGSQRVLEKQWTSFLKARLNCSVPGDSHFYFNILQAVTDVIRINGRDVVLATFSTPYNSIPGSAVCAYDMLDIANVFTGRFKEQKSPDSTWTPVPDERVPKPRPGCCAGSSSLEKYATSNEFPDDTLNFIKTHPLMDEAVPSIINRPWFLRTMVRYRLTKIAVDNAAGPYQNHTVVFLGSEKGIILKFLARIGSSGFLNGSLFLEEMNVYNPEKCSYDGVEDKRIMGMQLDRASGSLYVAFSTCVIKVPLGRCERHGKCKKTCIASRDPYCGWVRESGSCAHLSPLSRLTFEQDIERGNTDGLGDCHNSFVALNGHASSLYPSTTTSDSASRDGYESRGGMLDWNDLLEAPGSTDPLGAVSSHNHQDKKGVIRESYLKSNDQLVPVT

PlexinA2, sequence (P70207 35-1237): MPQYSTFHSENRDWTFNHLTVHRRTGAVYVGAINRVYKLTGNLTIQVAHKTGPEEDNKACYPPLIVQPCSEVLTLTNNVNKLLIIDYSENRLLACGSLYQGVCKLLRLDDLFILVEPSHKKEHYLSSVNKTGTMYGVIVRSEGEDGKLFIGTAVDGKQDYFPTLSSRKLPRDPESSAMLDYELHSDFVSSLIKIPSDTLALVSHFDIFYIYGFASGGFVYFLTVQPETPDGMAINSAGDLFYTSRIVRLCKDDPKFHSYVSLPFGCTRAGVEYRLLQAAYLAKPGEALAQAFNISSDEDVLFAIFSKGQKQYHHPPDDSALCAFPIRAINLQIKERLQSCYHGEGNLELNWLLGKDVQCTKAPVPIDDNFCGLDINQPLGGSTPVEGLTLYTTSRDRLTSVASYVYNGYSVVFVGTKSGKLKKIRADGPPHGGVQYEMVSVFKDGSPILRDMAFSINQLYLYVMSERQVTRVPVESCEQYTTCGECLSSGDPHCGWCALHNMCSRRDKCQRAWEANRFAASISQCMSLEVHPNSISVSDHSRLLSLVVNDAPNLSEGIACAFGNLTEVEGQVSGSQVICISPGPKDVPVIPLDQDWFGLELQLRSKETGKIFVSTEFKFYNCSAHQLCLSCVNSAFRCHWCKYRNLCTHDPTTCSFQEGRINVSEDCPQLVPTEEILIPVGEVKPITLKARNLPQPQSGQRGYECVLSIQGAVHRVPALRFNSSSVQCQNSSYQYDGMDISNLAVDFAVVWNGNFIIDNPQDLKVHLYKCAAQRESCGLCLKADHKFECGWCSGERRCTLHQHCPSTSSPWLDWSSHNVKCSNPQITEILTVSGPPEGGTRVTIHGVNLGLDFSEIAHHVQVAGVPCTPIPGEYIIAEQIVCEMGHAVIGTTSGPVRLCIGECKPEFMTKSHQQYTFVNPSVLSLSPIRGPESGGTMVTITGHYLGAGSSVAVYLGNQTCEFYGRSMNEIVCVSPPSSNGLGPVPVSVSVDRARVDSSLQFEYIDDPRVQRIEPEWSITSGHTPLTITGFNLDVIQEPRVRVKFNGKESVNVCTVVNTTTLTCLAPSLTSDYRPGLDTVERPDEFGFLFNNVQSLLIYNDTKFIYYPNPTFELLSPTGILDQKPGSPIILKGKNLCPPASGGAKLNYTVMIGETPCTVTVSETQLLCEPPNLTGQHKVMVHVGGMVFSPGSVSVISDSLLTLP

## PlexinA2 (from UniProt P70207)
  Kd: 2.3 µM
